Target: histone H3 trimethylated at lysine 9 (H3K9me3) in bulk calf thymus histones (Sigma)

B1: GST-tagged KDM4C (BPS Bioscience) (protein)
chain: EVAEVESPLNPSCKIMTFRPSMEEFREFNKYLAYMESKGAHRAGLAKVIPPKEWKPRQCYDDIDNLLIPAPIQQMVTGQSGLFTQYNIQKKAMTVKEFRQLANSGKYCTPRYLDYEDLERKYWKNLTFVAPIYGADINGSIYDEGVDEWNIARLNTVLDVVEEECGISIEGVNTPYLYFGMWKTTFAWHTEDMDLYSINYLHFGEPKSWYAIPPEHGKRLERLAQGFFPSSSQGCDAFLRHKMTLISPSVLKKYGIPFDKITQEAGEFMITFPYGYHAGFNHGFNCAESTNFATVRWIDYGKVAKLCTCRKDMVKISMDIFVRKFQPDRYQLWKQGKDIYTIDHTKPTPASTPEVKAWLQRRRKVRKASRS
in vitro histone demethylation assay; H3K9me3 assessed by Western blot: Addition of purified KDM4C to histone substrates resulted in demethylation of H3K9me3

— US10450596
